Results reported in patent EP4748858A1.

Target: PE-Labelled Human CD7 Protein, His Tag (ACROBiosystems, Cat# CD7-HP2E3) (human) (UniProt P09564)
Experiment: flow cytometry of CAR-T cells stained with PE-labelled human CD7 protein, His tag

Chain of PE-Labelled Human CD7 Protein, His Tag (ACROBiosystems, Cat# CD7-HP2E3) (human) (P09564 26-180 limits assumed): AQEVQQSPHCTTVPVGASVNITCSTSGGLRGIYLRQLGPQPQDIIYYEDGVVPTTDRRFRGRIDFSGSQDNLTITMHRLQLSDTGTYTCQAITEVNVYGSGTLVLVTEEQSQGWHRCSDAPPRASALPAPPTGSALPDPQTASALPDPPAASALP

CAR expression% (cells stained by PE-labelled human CD7 protein) [%] | Binder
97.3 | AHP19509-VHH1 CAR (protein) EVQLVESGGGLVQPGGSLRLSCAASGGTFNRYTMGWFRQAPGKEREFVSAISWSGGSTDYADSVKGRFTISRDNSKNTLYLQMNSLRAEDTAVYYCDTDRMPYRPVAAGILSWEANWGQGTLVTVSSGGGSGGGSGGGSGGGSEVQLVESGGGLVQPGGSLRLSCAASGGTFNRYTMGWFRQAPGKEREFVSAISWSGGSTDYADSVKGRFTISRDNSKNTLYLQMNSLRAEDTAVYYCDTDRMPYRPVAAGILSWEANWGQGTLVTVSSAAADYKDDDDKIEVMYPPPYLDNEKSNGTIIHVKGKHLCPSPLFPGPSKPFWVLVVVGGVLACYSLLVTVAFIIFWVRSKRSRLLHSDYMNMTPRRPGPTRKHYQPYAPPRDFAAYRSRVKFSRSADAPAYQQGQNQLYNELNLGRREEYDVLDKRRGRDPEMGGKPRRKNPQEGLYNELQKDKMAEAYSEIGMKGERRRGKGHDGLYQGLSTATKDTYDALHMQALPPR
99.1 | VHH6 CAR (protein) DVQLQESGGGLVQAGGSLRLSCAVSGYPYSSYCMGWFRQAPGKEREGVAAIDSDGRTRYADSVKGRFTISQDNAKNTLYLQMNRMKPEDTAMYYCAARFGPMGCVDLSTLSFGHWGQGTQVTVSITGGGGSGGGGSGGGGSGGGGSDVQLQESGGGLVQAGGSLRLSCAVSGYPYSSYCMGWFRQAPGKEREGVAAIDSDGRTRYADSVKGRFTISQDNAKNTLYLQMNRMKPEDTAMYYCAARFGPMGCVDLSTLSFGHWGQGTQVTVSITAAADYKDDDDKIEVMYPPPYLDNEKSNGTIIHVKGKHLCPSPLFPGPSKPFWVLVVVGGVLACYSLLVTVAFIIFWVRSKRSRLLHSDYMNMTPRRPGPTRKHYQPYAPPRDFAAYRSRVKFSRSADAPAYQQGQNQLYNELNLGRREEYDVLDKRRGRDPEMGGKPRRKNPQEGLYNELQKDKMAEAYSEIGMKGERRRGKGHDGLYQGLSTATKDTYDALHMQALPPR

Further lines, the binder ahead of its results:

Binder | CAR expression% (cells stained by PE-labelled human CD7 protein) [%]
AHP19484-VHH3 CAR (protein) QVQLVESGGGLVKPGGSLRLSCAASGSSFHFAFMGWYRQAPGKQRELVADISPGNSTNYADPVKGRFTISRDNAKNSLYLQMNSLRAEDTAVYFCRDLRSWGAWGQGTLVTVSSGGGSGGGSGGGSGGGSQVQLVESGGGLVKPGGSLRLSCAASGSSFHFAFMGWYRQAPGKQRELVADISPGNSTNYADPVKGRFTISRDNAKNSLYLQMNSLRAEDTAVYFCRDLRSWGAWGQGTLVTVSSAAADYKDDDDKIEVMYPPPYLDNEKSNGTIIHVKGKHLCPSPLFPGPSKPFWVLVVVGGVLACYSLLVTVAFIIFWVRSKRSRLLHSDYMNMTPRRPGPTRKHYQPYAPPRDFAAYRSRVKFSRSADAPAYQQGQNQLYNELNLGRREEYDVLDKRRGRDPEMGGKPRRKNPQEGLYNELQKDKMAEAYSEIGMKGERRRGKGHDGLYQGLSTATKDTYDALHMQALPPR | 92.8
AHP19485-VHH1 CAR (protein) EVQLVESGGGLVQPGGSLRLSCAASERIFSIHAMGWYRQAPGKQRELVSSITIGGSTHYADSVKGRFTISRDNSKNTLYLQMNSLRAEDTAVYYCNSMLLAGTVGGSWGQGTLVTVSSGGGSGGGSGGGSGGGSEVQLVESGGGLVQPGGSLRLSCAASERIFSIHAMGWYRQAPGKQRELVSSITIGGSTHYADSVKGRFTISRDNSKNTLYLQMNSLRAEDTAVYYCNSMLLAGTVGGSWGQGTLVTVSSAAADYKDDDDKIEVMYPPPYLDNEKSNGTIIHVKGKHLCPSPLFPGPSKPFWVLVVVGGVLACYSLLVTVAFIIFWVRSKRSRLLHSDYMNMTPRRPGPTRKHYQPYAPPRDFAAYRSRVKFSRSADAPAYQQGQNQLYNELNLGRREEYDVLDKRRGRDPEMGGKPRRKNPQEGLYNELQKDKMAEAYSEIGMKGERRRGKGHDGLYQGLSTATKDTYDALHMQALPPR | 99.7
